Data taken from US20120316071A1 (published 2012).
Numbering of substitutions follows the chain as printed. In names and notes the source's numbering stands.

T1: rHuman Erythropoietin R/Fc Chimera, CF (R&D Systems Cat#963-ER) (human, UniProt P19235 25-250)
T1 construct: Bought recombinant protein; also called EPO R; EPO R/Fc; Fc part of the bought chimera not given
T1 sequence (looked up): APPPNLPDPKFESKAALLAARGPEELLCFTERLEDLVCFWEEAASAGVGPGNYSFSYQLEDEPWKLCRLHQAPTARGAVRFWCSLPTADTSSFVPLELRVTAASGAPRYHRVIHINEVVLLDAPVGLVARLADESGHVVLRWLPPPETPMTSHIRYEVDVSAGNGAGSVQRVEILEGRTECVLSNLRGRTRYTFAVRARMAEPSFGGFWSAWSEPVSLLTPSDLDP

B1: Fab VH5-51_IGHD5-18*01>3_IGHJ4*01 G100K/G104T G24T/S28R/G35V (H:KT TRV) & V3-4_IGLJ1*01 S96M (Fab, V domains shown)
VH: EVQLVQSGAEVKKPGESLKISCKTSGYRFTSYWIVWVRQMPGKGLEWMGIIYPGDSDTRYSPSFQGQVTISADKSISTAYLQWSSLKASDTAMYYCARRKYSYTYDYFDYWGQGTLVTVSS
VL: QTVVTQEPSFSVSPGGTVTLTCGLSSGSVSTSYYPSWYQQTPGQAPRTLIYSTNTRSSGVPDRFSGSILGNKAALTITGAQADDESDYYCVLYMGMGISYVFGTGTKVTVL
notes: Tested as Fab expressed in E. coli
B2: Fab VH5-51_IGHD5-18*01>3_IGHJ4*01 G100K/G104T G24T/S28R/G35V (H:KT TRV) & V3-4_IGLJ1*01 S96V (Fab, V domains shown)
VH: B1 VH
VL: B1 VL with M96V
notes: as for B1
B3: Fab VH5-51_IGHD5-18*01>3_IGHJ4*01 G100K/G104T G24T/S28R/G35V (H:KT TRV) & V3-4_IGLJ1*01 S96R (Fab, V domains shown)
VH: B1 VH
VL: B1 VL with M96R
notes: as for B1
B4: Fab VH5-51_IGHD5-18*01>3_IGHJ4*01 G100K/G104T (H:KT) & V3-4_IGLJ1*01 L92A (Fab, V domains shown)
VH: B1 VH with T24G, R28S, V35G
VL: B1 VL with L92A, M96S
notes: Fab; Expressed from Plasmid A (CH1, His6 and Flag tags) and Plasmid E (lambda CL); also called KT & L92A
B5: Fab H:APFF LTH & L6_IGKJ1*01 S28N/S30D/S31H (NDH) (Fab, V domains shown)
VH: QVQLVQSGAEVKKPGASVKVSCKASGYTFTSYYMHWVRQAPGQGLEWMGIILPTGHSTSYAQKFQGRVTMTRDTSTSTVYMELSSLRSEDTAVYYCAREEYAPFSAEYFQFWGQGTLVTVSS
VL: EIVLTQSPATLSLSPGERATLSCRASQNVDHYLAWYQQKPGQAPRLLIYDASNRATGIPARFSGSGSGTDFTLTISSLEPEDFAVYYCQQRSNWPPWTFGQGTKVEIKR
notes: Fab; also called H:APFF LTH & L:NDH
B6: Fab VH1-46_IGHD6-6*01_IGHJ1*01 S102A/S103P/S104F/H111F I51V/N52L/S54T/G56H & L6_IGKJ1*01 S28N/S30D/S31H S52L/A55S (Fab, V domains shown)
VH: B5 VH with I51V
VL: B5 VL with S52L, A55S
notes: Fab; Constant parts come from Plasmid A (CH1, His6, Flag) and Plasmid C (kappa CL); also called H:APFF VLTH & L:NDH LS
B7: Fab H:APFF VLTH & L6_IGKJ1*01 S28N/S30D/S31H S52L/A55G (NDH LG) (Fab, V domains shown)
VH: B5 VH with I51V
VL: B5 VL with S52L, A55G
notes: Fab; also called H:APFF VLTH & L:NDH LG
B8: Fab H:APFF VLTH & L6_IGKJ1*01 S28N/S30D/S31H (NDH) (Fab, V domains shown)
VH: B5 VH with I51V
VL: B5 VL
notes: Fab; also called H:APFF VLTH & L:NDH
B9: Fab H:APFF LTH & L6_IGKJ1*01 S28N/S30D/S31H S52L/A55S (NDH LS) (Fab, V domains shown)
VH: B5 VH
VL: B5 VL with S52L, A55S
notes: Fab; also called H:APFF LTH & L:NDH LS
B10: Fab H:APFF LTH & L6_IGKJ1*01 S28N/S30D/S31H S52L/A55G (NDH LG) (Fab, V domains shown)
VH: B5 VH
VL: B5 VL with S52L, A55G
notes: Fab; also called H:APFF LTH & L:NDH LG

Tests used:
[1] = target: T2, Recombinant Human DLL4 (R&D Systems Cat#1506-D4/CF) (human, UniProt Q9NR61 27-524); test: ELISA, DLL4 coated on plate, Fab at 100 nM, absorbance at 450 nm
T2 construct: also called delta-like protein 4; rHuman DLL4

[2] = target: T3, rHuman EGF R/Fc Chimera, CF (R&D Systems Cat#344-ER) (human, UniProt P00533 25-645); test: ECL multispot (MSD) binding assay, antigen spotted on plate, Fab 0.04 uM;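 further: purified Fab incubated 1 h at 20 °C on antigen spots, detected via TAG-labelled antibody, ECL read against each well's blank, with signal-to-blank of at least 4 scored as binder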
T3 construct: Bought recombinant protein; also called epidermal growth factor receptor; Fc part of the bought chimera not given

[3] = target: T1, rHuman Erythropoietin R/Fc Chimera, CF …; test: as above
[4] = target: T4, Recombinant Human DLL4 (R&D Systems Cat#1506-D4/CF) (human, UniProt Q9NR61 27-524); test: as above
T4 construct: Bought recombinant protein; also called delta-like protein 4; rHuman DLL4

[5] = target: T5, rHuman P-Cadherin/Fc Chimera, CF (R&D Systems Cat#861-PC) (human, UniProt P22223 108-654); test: as above
T5 construct: Bought recombinant protein; Fc part of the bought chimera not given

[6] = target: T6, Recombinant Human DLL4 (R&D Systems Cat#1506-D4/CF) (human, UniProt Q9NR61 27-524); test: ELISA titration, 3-fold dilutions from 20 nM Fab
T6 construct: bought recombinant protein; also called rHuman DLL4; delta-like protein 4

[7] = target: T7, full-length human DLL4 expressed on the surface of CHO cells (human, UniProt Q9NR61 26-685); test: competition, flow cytometry; 250 nM biotinylated Notch-Fc as competitor on CHO-DLL4 cells, streptavidin-PE
T7 construct: also called CHO-DLL4; DLL4-expressing CHO cells

Binder | ELISA Signal-blank (100 nM Fab) [1] | fold binding affinity against the antibody mutants with heavy chain H:APFF ALTH [6] [fold] | other results
B1 | 0.358 |  | 
B2 | 0.452 |  | 
B3 | 0.499 |  | 
B4 |  |  | ECL signal [2]: 1010; ECL signal [3]: 582; ECL signal [4]: 11700; ECL signal [5]: 326
B5 |  | ~10 | 
B6 |  |  | signal of biotinylated Notch-Fc bound to CHO-DLL4 cells at 2 nM Fab (read-out not given) [7]: 117; signal of biotinylated Notch-Fc bound to CHO-DLL4 cells at 10 nM Fab (read-out not given) [7]: 30
B7 |  | ~10 | 
B8 |  | ~10 | 
B9 |  | ~10 | 
B10 |  | ~10 | 
